T1: hIL-7R (Example 11) (human, UniProt P16871 21-239)
T1 construct: Called full length hIL-7R for the mRNA display and hIL-7R for the Biacore runs; also called full length hIL-7R; human IL-7R
T1 chain: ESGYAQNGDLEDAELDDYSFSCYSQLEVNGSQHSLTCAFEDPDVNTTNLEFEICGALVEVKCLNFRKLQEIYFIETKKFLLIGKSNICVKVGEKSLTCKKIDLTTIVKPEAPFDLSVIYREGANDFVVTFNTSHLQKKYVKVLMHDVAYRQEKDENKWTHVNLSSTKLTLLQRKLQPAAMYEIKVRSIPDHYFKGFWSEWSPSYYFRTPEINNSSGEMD


Experiments:
hIL-7R (Example 11) [1] = molecular target: T1, hIL-7R (Example 11); experiment: NGS enrichment ratio of the mutation in the scFv library selected at 0.2 nM hIL-7R [cont'd]
From the text: (§1) All six CDRs of the antibody were mutated, with each position in the CDR mutated to all possible amino acids at that position. […] FIGS. 17A and 17B provide a schematic of the overall process.

hIL-7R (Example 11) [2] = molecular target: T1, hIL-7R (Example 11); experiment: SPR (Biacore), ratio KD of parent 18B1 to KD of variant [cont'd]
From the text: (§2) Affinity (KD) of each variant binding to hIL-7R was obtained using this approach, and compared against the enrichment ratio (ER) obtained through NGS heat map analysis for the same variant.

hIL-7R (Example 11) [3] = molecular target: T1, hIL-7R (Example 11); experiment: SPR (Biacore), ratio KD of parent 18B1 to KD of variant
From the text: as §2

hIL-7R (Example 11) [4] = molecular target: T1, hIL-7R (Example 11); experiment: NGS enrichment ratio of the mutation in the scFv library selected at 0.2 nM hIL-7R
From the text: as §1

Binder | 0.2 nM NGS (hIL-7R (Example 11) [1]) | KD Relative to 18B1 (hIL-7R (Example 11) [2]) | KD Relative to 18B1 (hIL-7R (Example 11) [3]) | 0.2 nM NGS (hIL-7R (Example 11) [4])
18B1 LC D50A (antibody, human IgG1, kappa, V domains shown) VH: EVQLVESGGGLVQPGRSLRLSCAASGFTFDDHAMHWVRQAPGKGLEWVSGISWNSRGIGYADSVKGRFTIFRDNAKNSLYLQMNSLRAEDTALYYCAKDEYSRGYYVLDVWGQGTTVTVSS VL: AIQLTQSPSSLSASVGDRVTITCRASQGISSALAWYQQKPGKAPKLLIYAASSLESGVPSRFSGSGSGTDFTLTISSLQPEDFATYYCQQFNSYPLWITFGQGTRLEIKR | 0.3 | 0.77 | – | –
18B1 LC S93A (antibody, human IgG1, kappa, V domains shown) VH: EVQLVESGGGLVQPGRSLRLSCAASGFTFDDHAMHWVRQAPGKGLEWVSGISWNSRGIGYADSVKGRFTIFRDNAKNSLYLQMNSLRAEDTALYYCAKDEYSRGYYVLDVWGQGTTVTVSS VL: AIQLTQSPSSLSASVGDRVTITCRASQGISSALAWYQQKPGKAPKLLIYDASSLESGVPSRFSGSGSGTDFTLTISSLQPEDFATYYCQQFNAYPLWITFGQGTRLEIKR | – | – | 1.86 | 1.84
18B1 LC E55A (antibody, human IgG1, kappa, V domains shown) VH: EVQLVESGGGLVQPGRSLRLSCAASGFTFDDHAMHWVRQAPGKGLEWVSGISWNSRGIGYADSVKGRFTIFRDNAKNSLYLQMNSLRAEDTALYYCAKDEYSRGYYVLDVWGQGTTVTVSS VL: AIQLTQSPSSLSASVGDRVTITCRASQGISSALAWYQQKPGKAPKLLIYDASSLASGVPSRFSGSGSGTDFTLTISSLQPEDFATYYCQQFNSYPLWITFGQGTRLEIKR | 0.23 | 0.57 | – | –
18B1 LC S52A (antibody, human IgG1, kappa, V domains shown) VH: EVQLVESGGGLVQPGRSLRLSCAASGFTFDDHAMHWVRQAPGKGLEWVSGISWNSRGIGYADSVKGRFTIFRDNAKNSLYLQMNSLRAEDTALYYCAKDEYSRGYYVLDVWGQGTTVTVSS VL: AIQLTQSPSSLSASVGDRVTITCRASQGISSALAWYQQKPGKAPKLLIYDAASLESGVPSRFSGSGSGTDFTLTISSLQPEDFATYYCQQFNSYPLWITFGQGTRLEIKR | 1.09 | 0.93 | – | –
18B1 LC L54A (antibody, human IgG1, kappa, V domains shown) VH: EVQLVESGGGLVQPGRSLRLSCAASGFTFDDHAMHWVRQAPGKGLEWVSGISWNSRGIGYADSVKGRFTIFRDNAKNSLYLQMNSLRAEDTALYYCAKDEYSRGYYVLDVWGQGTTVTVSS VL: AIQLTQSPSSLSASVGDRVTITCRASQGISSALAWYQQKPGKAPKLLIYDASSAESGVPSRFSGSGSGTDFTLTISSLQPEDFATYYCQQFNSYPLWITFGQGTRLEIKR | 0.99 | 0.93 | – | –
18B1 LC S53A (antibody, human IgG1, kappa, V domains shown) VH: EVQLVESGGGLVQPGRSLRLSCAASGFTFDDHAMHWVRQAPGKGLEWVSGISWNSRGIGYADSVKGRFTIFRDNAKNSLYLQMNSLRAEDTALYYCAKDEYSRGYYVLDVWGQGTTVTVSS VL: AIQLTQSPSSLSASVGDRVTITCRASQGISSALAWYQQKPGKAPKLLIYDASALESGVPSRFSGSGSGTDFTLTISSLQPEDFATYYCQQFNSYPLWITFGQGTRLEIKR | 1.07 | 0.79 | – | –
18B1 LC Q27A (antibody, human IgG1, kappa, V domains shown) VH: EVQLVESGGGLVQPGRSLRLSCAASGFTFDDHAMHWVRQAPGKGLEWVSGISWNSRGIGYADSVKGRFTIFRDNAKNSLYLQMNSLRAEDTALYYCAKDEYSRGYYVLDVWGQGTTVTVSS VL: AIQLTQSPSSLSASVGDRVTITCRASAGISSALAWYQQKPGKAPKLLIYDASSLESGVPSRFSGSGSGTDFTLTISSLQPEDFATYYCQQFNSYPLWITFGQGTRLEIKR | – | – | 1.06 | 1.27
18B1 LC P95A (antibody, human IgG1, kappa, V domains shown) VH: EVQLVESGGGLVQPGRSLRLSCAASGFTFDDHAMHWVRQAPGKGLEWVSGISWNSRGIGYADSVKGRFTIFRDNAKNSLYLQMNSLRAEDTALYYCAKDEYSRGYYVLDVWGQGTTVTVSS VL: AIQLTQSPSSLSASVGDRVTITCRASQGISSALAWYQQKPGKAPKLLIYDASSLESGVPSRFSGSGSGTDFTLTISSLQPEDFATYYCQQFNSYALWITFGQGTRLEIKR | – | – | 0.08 | 0.03
18B1 LC S31A (antibody, human IgG1, kappa, V domains shown) VH: EVQLVESGGGLVQPGRSLRLSCAASGFTFDDHAMHWVRQAPGKGLEWVSGISWNSRGIGYADSVKGRFTIFRDNAKNSLYLQMNSLRAEDTALYYCAKDEYSRGYYVLDVWGQGTTVTVSS VL: AIQLTQSPSSLSASVGDRVTITCRASQGISAALAWYQQKPGKAPKLLIYDASSLESGVPSRFSGSGSGTDFTLTISSLQPEDFATYYCQQFNSYPLWITFGQGTRLEIKR | – | – | 0.74 | 0.6
18B1 LC N92A (antibody, human IgG1, kappa, V domains shown) VH: EVQLVESGGGLVQPGRSLRLSCAASGFTFDDHAMHWVRQAPGKGLEWVSGISWNSRGIGYADSVKGRFTIFRDNAKNSLYLQMNSLRAEDTALYYCAKDEYSRGYYVLDVWGQGTTVTVSS VL: AIQLTQSPSSLSASVGDRVTITCRASQGISSALAWYQQKPGKAPKLLIYDASSLESGVPSRFSGSGSGTDFTLTISSLQPEDFATYYCQQFASYPLWITFGQGTRLEIKR | – | – | 0.63 | 0.34
18B1 LC Q90A (antibody, human IgG1, kappa, V domains shown) VH: EVQLVESGGGLVQPGRSLRLSCAASGFTFDDHAMHWVRQAPGKGLEWVSGISWNSRGIGYADSVKGRFTIFRDNAKNSLYLQMNSLRAEDTALYYCAKDEYSRGYYVLDVWGQGTTVTVSS VL: AIQLTQSPSSLSASVGDRVTITCRASQGISSALAWYQQKPGKAPKLLIYDASSLESGVPSRFSGSGSGTDFTLTISSLQPEDFATYYCQAFNSYPLWITFGQGTRLEIKR | – | – | 1.46 | 1.63
18B1 LC I29A (antibody, human IgG1, kappa, V domains shown) VH: EVQLVESGGGLVQPGRSLRLSCAASGFTFDDHAMHWVRQAPGKGLEWVSGISWNSRGIGYADSVKGRFTIFRDNAKNSLYLQMNSLRAEDTALYYCAKDEYSRGYYVLDVWGQGTTVTVSS VL: AIQLTQSPSSLSASVGDRVTITCRASQGASSALAWYQQKPGKAPKLLIYDASSLESGVPSRFSGSGSGTDFTLTISSLQPEDFATYYCQQFNSYPLWITFGQGTRLEIKR | – | – | 1.46 | 1.44
18B1 LC G28A (antibody, human IgG1, kappa, V domains shown) VH: EVQLVESGGGLVQPGRSLRLSCAASGFTFDDHAMHWVRQAPGKGLEWVSGISWNSRGIGYADSVKGRFTIFRDNAKNSLYLQMNSLRAEDTALYYCAKDEYSRGYYVLDVWGQGTTVTVSS VL: AIQLTQSPSSLSASVGDRVTITCRASQAISSALAWYQQKPGKAPKLLIYDASSLESGVPSRFSGSGSGTDFTLTISSLQPEDFATYYCQQFNSYPLWITFGQGTRLEIKR | – | – | 0.85 | 1.05
18B1 LC T97A (antibody, V domains shown, copies: 2 + 2) VH: EVQLVESGGGLVQPGRSLRLSCAASGFTFDDHAMHWVRQAPGKGLEWVSGISWNSRGIGYADSVKGRFTIFRDNAKNSLYLQMNSLRAEDTALYYCAKDEYSRGYYVLDVWGQGTTVTVSS VL: AIQLTQSPSSLSASVGDRVTITCRASQGISSALAWYQQKPGKAPKLLIYDASSLESGVPSRFSGSGSGTDFTLTISSLQPEDFATYYCQQFNSYPLWIAFGQGTRLEIKR | – | – | 1.16 | 0.92
18B1 LC L33A (antibody, human IgG1, kappa, V domains shown) VH: EVQLVESGGGLVQPGRSLRLSCAASGFTFDDHAMHWVRQAPGKGLEWVSGISWNSRGIGYADSVKGRFTIFRDNAKNSLYLQMNSLRAEDTALYYCAKDEYSRGYYVLDVWGQGTTVTVSS VL: AIQLTQSPSSLSASVGDRVTITCRASQGISSAAAWYQQKPGKAPKLLIYDASSLESGVPSRFSGSGSGTDFTLTISSLQPEDFATYYCQQFNSYPLWITFGQGTRLEIKR | – | – | 1.08 | 1.05
18B1 LC F91A (antibody, human IgG1, kappa, V domains shown) VH: EVQLVESGGGLVQPGRSLRLSCAASGFTFDDHAMHWVRQAPGKGLEWVSGISWNSRGIGYADSVKGRFTIFRDNAKNSLYLQMNSLRAEDTALYYCAKDEYSRGYYVLDVWGQGTTVTVSS VL: AIQLTQSPSSLSASVGDRVTITCRASQGISSALAWYQQKPGKAPKLLIYDASSLESGVPSRFSGSGSGTDFTLTISSLQPEDFATYYCQQANSYPLWITFGQGTRLEIKR | – | – | 0.19 | 0.05
18B1 LC S30A (antibody, human IgG1, kappa, V domains shown) VH: EVQLVESGGGLVQPGRSLRLSCAASGFTFDDHAMHWVRQAPGKGLEWVSGISWNSRGIGYADSVKGRFTIFRDNAKNSLYLQMNSLRAEDTALYYCAKDEYSRGYYVLDVWGQGTTVTVSS VL: AIQLTQSPSSLSASVGDRVTITCRASQGIASALAWYQQKPGKAPKLLIYDASSLESGVPSRFSGSGSGTDFTLTISSLQPEDFATYYCQQFNSYPLWITFGQGTRLEIKR | – | – | 0.88 | 0.7
18B1 LC S26A (antibody, human IgG1, kappa, V domains shown) VH: EVQLVESGGGLVQPGRSLRLSCAASGFTFDDHAMHWVRQAPGKGLEWVSGISWNSRGIGYADSVKGRFTIFRDNAKNSLYLQMNSLRAEDTALYYCAKDEYSRGYYVLDVWGQGTTVTVSS VL: AIQLTQSPSSLSASVGDRVTITCRAAQGISSALAWYQQKPGKAPKLLIYDASSLESGVPSRFSGSGSGTDFTLTISSLQPEDFATYYCQQFNSYPLWITFGQGTRLEIKR | – | – | 1.28 | 1.32

From patent US20220017627A1 (Bristol-Myers Squibb, published 2022)
